Paper PMC12029569, “Exploring the G-Quadruplex Formation of AS1411 Derivatives”

Tests used:
Details in all cases: label: 5'-Cy5; G-quadruplex
NCL RBD2,3 [1] = biological target: T1, NCL RBD2,3 (UniProt P19338 393-560); assay: fluorescence titration; Hill n 0.54; K100: 100 mM KCl, 10 mM lithium cacodylate pH 7.2; 100 nM Cy5-oligonucleotide pre-annealed, 5 min equilibration per protein addition; temperature not stated
NCL RBD1,2 [2] = biological target: T2, NCL RBD1,2 (UniProt P19338 307-466); assay: fluorescence titration; Hill n 0.37; main text prints 4.6 nM (conflict with Table S4); K100: 100 mM KCl, 10 mM lithium cacodylate pH 7.2; 100 nM Cy5-oligonucleotide pre-annealed, 5 min equilibration per protein addition; temperature not stated
T2 sequence (P19338 307-466): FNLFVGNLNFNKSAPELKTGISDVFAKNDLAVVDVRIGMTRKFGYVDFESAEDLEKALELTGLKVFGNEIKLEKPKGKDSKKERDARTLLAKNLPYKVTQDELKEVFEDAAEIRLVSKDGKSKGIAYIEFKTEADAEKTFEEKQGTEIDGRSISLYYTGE

NCL RBD2,3 [3] = biological target: T1, NCL RBD2,3; assay: fluorescence titration; Hill n 2.08; K100: 100 mM KCl, 10 mM lithium cacodylate pH 7.2; 100 nM Cy5-oligonucleotide pre-annealed, 5 min equilibration per protein addition; temperature not stated
NCL RBD1,2 [4] = biological target: T2, NCL RBD1,2; assay: fluorescence titration; Hill n 0.20; SD exceeds Kd; K100: 100 mM KCl, 10 mM lithium cacodylate pH 7.2; 100 nM Cy5-oligonucleotide pre-annealed, 5 min equilibration per protein addition; temperature not stated
NCL RBD1,2 [5] = biological target: T2, NCL RBD1,2; assay: fluorescence titration; Hill n 0.31; SD exceeds Kd; K100: 100 mM KCl, 10 mM lithium cacodylate pH 7.2; 100 nM Cy5-oligonucleotide pre-annealed, 5 min equilibration per protein addition; temperature not stated
NCL RBD2,3 [6] = biological target: T1, NCL RBD2,3; assay: fluorescence titration; no measurable interaction; Hill fit not possible; up to 50 nM protein; K100: 100 mM KCl, 10 mM lithium cacodylate pH 7.2; 100 nM Cy5-oligonucleotide pre-annealed, 5 min equilibration per protein addition; temperature not stated
NCL RBD1,2 [7] = biological target: T2, NCL RBD1,2; assay: fluorescence titration; Hill n 1.89; K100: 100 mM KCl, 10 mM lithium cacodylate pH 7.2; 100 nM Cy5-oligonucleotide pre-annealed, 5 min equilibration per protein addition; temperature not stated
NCL RBD1,2 [8] = biological target: T2, NCL RBD1,2; assay: fluorescence titration; Hill n 0.33; K100: 100 mM KCl, 10 mM lithium cacodylate pH 7.2; 100 nM Cy5-oligonucleotide pre-annealed, 5 min equilibration per protein addition; temperature not stated
NCL RBD2,3 [9] = biological target: T1, NCL RBD2,3; assay: fluorescence titration; Hill n 0.49; SD exceeds Kd; K100: 100 mM KCl, 10 mM lithium cacodylate pH 7.2; 100 nM Cy5-oligonucleotide pre-annealed, 5 min equilibration per protein addition; temperature not stated
NCL RBD1,2 [10] = biological target: T2, NCL RBD1,2; assay: fluorescence titration; Hill n 0.24; K100: 100 mM KCl, 10 mM lithium cacodylate pH 7.2; 100 nM Cy5-oligonucleotide pre-annealed, 5 min equilibration per protein addition; temperature not stated

T1 sequence (P19338 393-560): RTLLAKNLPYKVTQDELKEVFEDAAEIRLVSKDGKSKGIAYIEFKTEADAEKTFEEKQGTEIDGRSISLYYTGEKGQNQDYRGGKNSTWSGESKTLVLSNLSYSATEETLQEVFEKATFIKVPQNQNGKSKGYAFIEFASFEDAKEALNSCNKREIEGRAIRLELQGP

Binder: GGTGGTGGTGGTTTTGGTGGTGGTGG (structured_DNA) [Cy5-AT14]
- Kd (NCL RBD2,3 [1]): 0.08 ± 0.01 nM
- Kd (NCL RBD1,2 [2]): 0.46 ± 0.12 nM

Binder: GGTGGTGGTGGTTTGGTGGTGGTGG (structured_DNA) [Cy5-AT14-T1]
- Kd (NCL RBD2,3 [3]): 2.16 ± 0.37 nM
- Kd (NCL RBD1,2 [4]): 1.4 nM

Binder: TGGTGGTGGTGGTTTTGGTGGTGGTGGT (structured_DNA) [Cy5-AT14T]
- Kd (NCL RBD1,2 [5]): 8.34 ± 13.2 nM
- binding result (NCL RBD2,3 [6]): no binding

Binder: TGGTGGTGGTGGTTGGTGGTGGTGGT (structured_DNA) [Cy5-AT14T-T2]
- Kd (NCL RBD1,2 [7]): 1.48 ± 0.2 nM
- binding result (NCL RBD2,3 [6]): no binding

Binder: GGTGGTGGTGGTTGGTGGTGGTGG (structured_DNA) [Cy5-AT14-T2]
- Kd (NCL RBD1,2 [8]): 0.01 ± 0.01 nM
- Kd (NCL RBD2,3 [9]): 5.37 ± 7.21 nM

Binder: TGGTGGTGGTGGTTTGGTGGTGGTGGT (structured_DNA) [Cy5-AT14T-T1]
- Kd (NCL RBD1,2 [10]): 3.39 ± 0.58 nM
